Data on four molecules can be found in patent US20140348834A1 (published 2014).

For assay [1], the target named is T1, human IL-17A (human, UniProt Q16552 24-155).
T1 construct: Biotinylated in the ELISA; also called hIL-17; Hu IL-17A
Description: ELISA, captured antibody, serially diluted biotin-IL-17 (Example 1.5.1). On the technique in general: ELISA stands for enzyme-linked immunosorbent assay.
T1 sequence (Q16552 24-155 limits assumed): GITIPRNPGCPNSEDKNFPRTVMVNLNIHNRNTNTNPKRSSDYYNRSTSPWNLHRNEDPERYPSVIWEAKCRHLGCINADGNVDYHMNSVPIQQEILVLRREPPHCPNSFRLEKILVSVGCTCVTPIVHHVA

The target in assay [2] is cynomolgous monkey (cyno) IL-17A (cynomolgus monkey, UniProt A0A2K5TTB0 24-155). Nature of the assay: cell-based or functional assay.
cynomolgous monkey (cyno) IL-17A, sequence (A0A2K5TTB0 entry or part of it): as the sequence (Q16552 24-155 limits assumed) above, with T3A, P8S, N34S, I77V, N78K, P104R counted along it
For assay [3], the target named is T2, rat IL-17A (rat, UniProt Q61453 18-150, limits assumed).
T2 sequence (looked up): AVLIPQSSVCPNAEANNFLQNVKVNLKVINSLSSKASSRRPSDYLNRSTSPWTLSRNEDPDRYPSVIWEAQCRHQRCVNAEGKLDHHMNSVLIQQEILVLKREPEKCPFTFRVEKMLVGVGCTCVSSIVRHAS
Description: cell-based or functional assay.

The target of assay [4] is T1, human IL-17A. Description: cell-based or functional assay.
Assay [5] concerns the target human IL-17A/F (human, UniProt Q16552 24-155; Q96PD4 31-163). Nature of the assay: cell-based or functional assay.
Target sequence in this assay (Q16552 24-155 limits assumed, chain 1 of 2): as the sequence (Q16552 24-155 limits assumed) above
Target sequence in this assay (Q96PD4 31-163 limits assumed, chain 2 of 2): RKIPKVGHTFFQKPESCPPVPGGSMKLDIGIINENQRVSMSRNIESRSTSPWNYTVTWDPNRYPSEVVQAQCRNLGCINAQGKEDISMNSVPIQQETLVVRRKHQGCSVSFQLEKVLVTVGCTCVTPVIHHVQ
Assay [6] deals with T3, human IL-17A/F (human, UniProt Q16552 24-155; Q96PD4 31-163).
T3 construct: Heterodimer of IL-17A and IL-17F, purified recombinant; also called HuIL-17A/F; Hu IL-17A/F
Nature of the assay: SPR Biacore, captured binder. For orientation: Surface plasmon resonance follows binding to a sensor surface in real time, without labels.
T3 sequence (Q16552 24-155 limits assumed, chain 1 of 2): as the sequence (Q16552 24-155 limits assumed) above
T3 sequence (Q96PD4 31-163 limits assumed, chain 2 of 2): as the sequence (Q96PD4 31-163 limits assumed, chain 2 of 2) above
Description: (§1) The binding of antibodies to purified recombinant human, cyno, rat, mouse, rabbit IL-17 and human IL-17A/F were determined by surface plasmon resonance-based measurements with a Biacore® 3000 instrument (Biacore® AB, Uppsala, Sweden) using running HBS-EP (10 mM HEPES [pH 7.4], 150 mM NaCl, 3 mM EDTA, and 0.005% surfactant P20) at 25° C. […] Approximately 5000 RU of goat anti-mouse or anti-human IgG (Fcγ) fragment specific polyclonal antibody (Pierce Biotechnology Inc, Rockford, Ill.) diluted in 10 mM sodium acetate (pH 4.5) was directly immobilized across a CM5 research grade biosensor chip using a standard amine coupling kit according to manufacturer's instructions and procedures at 25 μg/ml. Unreacted moieties on the biosensor surface were blocked with ethanolamine. Modified carboxymethyl dextran surface in flowcell 2 and 4 was used as a reaction surface. Unmodified carboxymethyl dextran without goat anti-mouse or anti-human IgG in flow cell 1 and 3 was used as the reference surface. For kinetic analysis, rate equations derived from the 1:1 Langmuir binding model were fitted simultaneously to association and dissociation phases of all eight injections (using global fit analysis) with the use of Biaevaluation 4.0.1 software. Purified antibodies were diluted in HEPES-buffered saline for capture across goat anti-mouse or anti-human IgG specific reaction surfaces. Antibodies to be captured as a ligand (25 μg/ml) were injected over reaction matrices at a flow rate of 5 μl/min. The association and dissociation rate constants, kon (unit M-1s-1) and koff (unit s-1) were determined under a continuous flow rate of 25 μl/min. Rate constants were derived by making kinetic binding measurements at ten different antigen concentrations ranging from 10 nM to 200 nM. The equilibrium dissociation constant (unit M) of the reaction between antibodies and recombinant purified IL-17 antigens was then calculated from the kinetic rate constants by the following formula: KD=koff/kon. Binding was recorded as a function of time and kinetic rate constants are calculated. In this assay, on-rates as fast as 10⁶ M⁻¹ s⁻¹ and off-rates as slow as 10⁻⁶ s⁻¹ can be measured.

The next assay addresses T4, mouse IL-17A (mouse, UniProt Q62386 26-158, limits assumed).
T4 construct: also called MuIL-17A; murine IL17A HIS
T4 sequence (looked up): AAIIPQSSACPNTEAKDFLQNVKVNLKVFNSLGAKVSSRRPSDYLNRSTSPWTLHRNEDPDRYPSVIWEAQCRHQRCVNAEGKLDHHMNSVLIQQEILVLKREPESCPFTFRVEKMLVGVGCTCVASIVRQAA
Description: SPR Biacore, captured binder.

The target in assay [7] is T5, human IL-17A (human, UniProt Q16552 24-155).
T5 construct: Purified recombinant; biotinylated in the ELISA; also called HuIL-17A; Hu IL-17A
Description: SPR Biacore, captured binder.
T5 sequence (Q16552 24-155 limits assumed): as the sequence (Q16552 24-155 limits assumed) above
Description: as §1

In assay [8] the target is T6, rat IL-17A (rat, UniProt Q61453 18-150, limits assumed).
T6 sequence (looked up): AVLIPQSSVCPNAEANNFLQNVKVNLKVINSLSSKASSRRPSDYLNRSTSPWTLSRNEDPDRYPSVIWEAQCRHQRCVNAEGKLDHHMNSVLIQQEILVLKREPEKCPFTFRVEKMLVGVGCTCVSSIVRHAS
Description: SPR Biacore, captured binder.
Description: as §1

Another assay deals with T7, rabbit IL-17A (rabbit).
T7 construct: also called RabIL-17A
Description: SPR Biacore, captured binder.

Another assay has as its target cyno IL-17A (cynomolgus monkey, UniProt A0A2K5TTB0 24-155). Nature of the assay: SPR Biacore, captured binder.

cyno IL-17A, sequence (A0A2K5TTB0 entry or part of it): as the sequence (Q16552 24-155 limits assumed) above, with T3A, P8S, N34S, I77V, N78K, P104R counted along it
Description for cyno IL-17A: as §1
Description for mouse IL-17A: as §1
Description for rabbit IL-17A: as §1

B1: IL17-B6-11 (antibody, V domains shown)
VH: EVQLVQSGAEVKKPGSSVKVSCKASGGSFLSYGFSWVRQAPGQGLEWMGGITPFFGFADYAQKFQGRVTITADESTTTAYMELSGLTSDDTAVYYCAREPNDFWNGYYTTHHFDYWGQGTTVTVSS
VL: DVVMTQSPDFQSVTPKEKVTITCRASQNIGSALHWYQQKPDQSPKLLIKYASQSISGVPSRFSGSGSGTDFTLTINGLEAEDAGTYYCHQSTSLPHTFGQGTKLDIKR
One may read the EC50 as the midpoint of the concentration-response curve. The molecule B1 yielded an EC50 with human IL-17A [1] of 58 pM. Besides, the results for the “Potency (pM), IL-17-driven IL-6 production in HS27 cells” value (in assay [2]; with human IL-17A [4]; in the assay with human IL-17A/F [5]) were 33 pM, 20 pM and 71 pM, respectively. Moreover, the “Potency (pM), IL-17 and TNF-induced IL-6 secretion from NIH3T3 cells” value in the assay with rat IL-17A [3] amounted to 6100 pM.

B2: IL17-B6-16 (antibody, V domains shown)
VH: EVQLVQSGAEVKMPGSSLKISCKASGGSFRGYGISWVRQAPGQGLEWMGGITPFFGWADYAQKFQGRVTITADESTTTAYMELSGLTSDDTAVYYCARDPNEFWNGYYDTHHFDYWGQGTTVTVSS
VL: EIVLTQSPDFQSVTPKEKVTITCRASQDIGSALHWYQQKPDQSPKLLIKYASHSVSGVPSRFSGSGSGTDFTLTINGLEAEDAGTYYCHQSDILPHTFGPGTKVDIK
notes: also called pJP247 B6.1 #16VH / pJP248 B6.1 #16Vk
Molecule B2 registered an EC50 with human IL-17A [1] of 160 pM. In addition, the “Potency (pM), IL-17-driven IL-6 production in HS27 cells” value amounted to 13 pM in assay [2], 26 pM with human IL-17A [4] and 114 pM with human IL-17A/F [5]. Also, the “Potency (pM), IL-17 and TNF-induced IL-6 secretion from NIH3T3 cells” value with rat IL-17A [3] was 167 pM.

B3: IL17-B6-17 (antibody, V domains shown)
VH: EVQLVQSGAEVKKPGSSVKVSCKASGGSFGGYGIGWVRQAPGQGLEWMGGITPFFGFADYAQKFQGRVTITADESTTTAYMELSGLTSDDTAVYYCARDPNEFWNGYYSTHDFDSWGQGTTVTVSS
VL: EIVLTQSPDFQSVTPKEKVTITCRASQDIGSELHWYQQKPDQPPKLLIKYASHSTSGVPSRFSGSGSGTDFTLTINGLEAEDAGTYYCHQTDSLPYTFGPGTKVDIK
One may read the Kd as the constant that tells how readily two partners part at equilibrium. Broadly, the koff is the first-order rate constant of dissociation. The kon is a measure of how fast the partners come together. For B3, the dissociation constant Kd with human IL-17A/F [6] came out at 1.7 pM; with mouse IL-17A, 113 pM; in the assay with human IL-17A [7], 0.785 pM; with rat IL-17A [8], 9.64 pM; in the assay with rabbit IL-17A, 3.51 pM; with cyno IL-17A, 1.03 pM. Also, the off-rate (koff) in the assay with human IL-17A/F [6] worked out at 1.23e-05 s⁻¹; with mouse IL-17A, 0.000169 s⁻¹; with human IL-17A [7], 3.1e-06 s⁻¹; with rat IL-17A [8], 5.91e-05 s⁻¹; in the assay with rabbit IL-17A it was 3.36e-05 s⁻¹; in the assay with cyno IL-17A, 1.05e-05 s⁻¹. Further, the kon stood at 7.23e+06 M⁻¹ s⁻¹ with human IL-17A/F [6]; 1.49e+06 M⁻¹ s⁻¹ with mouse IL-17A; 3.95e+06 M⁻¹ s⁻¹ with human IL-17A [7]; 6.13e+06 M⁻¹ s⁻¹ with rat IL-17A [8]; 9.58e+06 M⁻¹ s⁻¹ with rabbit IL-17A; 1.02e+07 M⁻¹ s⁻¹ with cyno IL-17A.

B4: IL17-B6-5 (antibody, V domains shown)
VH: EVQLVQSGAEVKKPGESVKISCKASGGSFRSYGISWVRQAPGQGLEWMGGITHFFGITDYAQKFQGRVTITADESTTTAYMELSGLTSDDTAVYYCAREPNDFWNGYYDTHDFDSWGQGTTVTVSS
VL: EIVLTQSPDFQSVTPKEKVTITCRASQNIGSELHWYQQKPDQSPKLLIKYASHSISGVPSRFSGSGSGTDFTLTINGLEAEDAATYYCHQSDTLPHTFGQGTKVDIK
notes: also called pJP243 B6.1 #5VH / pJP244 B6.1 #5VK
On to B4, for which the dissociation constant (Kd) is 2.22 pM in the assay with human IL-17A/F [6]; 39.5 pM in the assay with mouse IL-17A; 3.18 pM with human IL-17A [7]; 9.05 pM in the assay with rat IL-17A [8]; 3.17 pM with rabbit IL-17A; 5.39 pM in the assay with cyno IL-17A. The koff was found to be 2.95e-05 s⁻¹ with human IL-17A/F [6]; 0.000102 s⁻¹ in the assay with mouse IL-17A; 2.29e-05 s⁻¹ with human IL-17A [7]; 5.54e-05 s⁻¹ with rat IL-17A [8]; 2.23e-05 s⁻¹ with rabbit IL-17A; 6.52e-05 s⁻¹ with cyno IL-17A. For the same molecule, the on-rate constant (kon) came out at 1.33e+07 M⁻¹ s⁻¹ with human IL-17A/F [6]; 2.58e+06 M⁻¹ s⁻¹ with mouse IL-17A; 7.2e+06 M⁻¹ s⁻¹ in the assay with human IL-17A [7]; 6.12e+06 M⁻¹ s⁻¹ with rat IL-17A [8]; 7.03e+06 M⁻¹ s⁻¹ with rabbit IL-17A; 1.21e+07 M⁻¹ s⁻¹ with cyno IL-17A.
